Reference: US20230045791A1 (published 2023)
Where two headings read alike, the source gives them in different places.

B1: HFB3-14-hG1 (mouse monoclonal antibody) (antibody, V domains shown)
VH: EVQLQQSGPELVKPGASVRISCKASGYTFTDYYMNWVKQSHGKSLEWIGDINPNDGGTTYSQKFKGKATLTVDKSSSTAYMELRSLTSEDSAVYFCAREGNYYAYDVRVWYFDVWGTGTTVTVSS
VL: DIQMTQSPASLSVSVGETVTITCRSSENIYSNLAWYQQKQGKSPQLLVYAATNLADGVPSRFSGSGSGTQYSLKINSLQSEDFGSYYCQHFWGTPWTFGGGTKLEIKR
B2: HFB3-14hz1c-hG1 (humanized monoclonal antibody) (antibody, V domains shown)
VH: QVQLVQSGAEVKKPGSSVKVSCKASGYTFTDYYMNWVRQAPGQGLEWMGDINPNDGGTTYAQKFQGRVTITADESTSTAYMELSSLRSEDTAVYFCAREGNYYAYDVRVWYFDVWGQGTTVTVSS
VL: DIQMTQSPSSLSASVGDRVTITCGASQDIITYLNWYQQKPGKAVKLLIYSTSSLNSGVPSRFSGSGSGTDFTLTISSLQPEDFATYYCQQYSELPYTFGGGTKVELKR
B3: HFB3-18-hG1 (mouse monoclonal antibody) (antibody, V domains shown)
VH: EVKLEESGGGLVQPGGSMKLSCAASGFTFSDAWMDWVRQSPEKGLEWVAEVRNKANNHATYYAESVKGRFTISRDDSKSSVYLQMNSLRAEDTGIYYCTRSVGGYGTTYWYFDVWGTGTTVTVSS
VL: DIVMTQSPSSLSVSAGEKVTMSCKSSQNLLNSGNQKNYLAWYQQKPGQPPKLLIFGASTRESGVPDRFTGSGSGTDFTLTISSVQAEDLAVYYCQSEHSYPYTFGGGTKLEIKR
B4: HFB3-1-hG1 (mouse monoclonal antibody) (antibody, V domains shown)
VH: EFQLQQSGPELVKPGASVKISCKASSYSFTDYNMNWVKQSNGKSLEWIGIIFPKYGTTSYNQKFKGKATLTVDQSSSTAYMQLNSLTSEDSAVYYCATDGGTWYFDVWGTGTTVTVSS
VL: QIVLTQSPALMSASPGEKVTMTCSASSSVTYMYWYQQKPRSSPKPWIYLTSNLASGVPARFSGSGSGTSYSLTISSMEAEDAATYYCQQWSSNPPTFGSGTKLEIKR
B5: HFB3-1hz6-hG1 (humanized monoclonal antibody) (antibody, V domains shown)
VH: QVQLVQSGAELKKPGASVKVSCKASSYSFTDYNMNWVRQAPGQSLEWMGIIFPKYGTTSYAQKLQGRVTLTTDTSTSTAYMELRSLRSDDTAVYYCATDGGTWYFDVWGTGTTVTVSS
VL: DIQLTQSPSFLSASVGDRVTITCRASSSVTYMYWYQQKPGKAPKPWIYLTSNLASGVPSRFSGSGSGTEYTLTISSLQPEDAATYYCQQWSSNPPTFGSGTKLEIKR

Columns and labels:
[1] = molecular target: T1, rhesus monkey TNFR2 expressed on CHO cells (CHO.mkHFB3) (rhesus monkey, UniProt F7GUU0 22-457); assay: FACS cell binding
T1 chain: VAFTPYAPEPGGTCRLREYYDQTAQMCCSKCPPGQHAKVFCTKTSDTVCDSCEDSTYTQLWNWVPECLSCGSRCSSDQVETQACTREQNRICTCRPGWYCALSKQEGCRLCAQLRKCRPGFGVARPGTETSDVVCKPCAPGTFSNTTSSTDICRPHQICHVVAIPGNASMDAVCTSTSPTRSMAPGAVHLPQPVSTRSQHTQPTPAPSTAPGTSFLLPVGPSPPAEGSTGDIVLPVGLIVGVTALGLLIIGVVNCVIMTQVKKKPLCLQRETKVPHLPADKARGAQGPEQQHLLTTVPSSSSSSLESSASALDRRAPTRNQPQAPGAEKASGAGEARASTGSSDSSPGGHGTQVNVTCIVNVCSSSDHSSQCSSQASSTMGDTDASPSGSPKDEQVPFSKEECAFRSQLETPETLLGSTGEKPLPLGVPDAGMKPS

[2] = molecular target: T1, rhesus monkey TNFR2 expressed on CHO …; assay: FACS cell binding
[3] = molecular target: T2, human TNFR2 expressed on cells (CHO.hHFB3 / CHO.hTNFR2 cells; primary human T cells) (human, UniProt P20333 23-461); assay: FACS cell binding; IgG1AA format
T2 chain: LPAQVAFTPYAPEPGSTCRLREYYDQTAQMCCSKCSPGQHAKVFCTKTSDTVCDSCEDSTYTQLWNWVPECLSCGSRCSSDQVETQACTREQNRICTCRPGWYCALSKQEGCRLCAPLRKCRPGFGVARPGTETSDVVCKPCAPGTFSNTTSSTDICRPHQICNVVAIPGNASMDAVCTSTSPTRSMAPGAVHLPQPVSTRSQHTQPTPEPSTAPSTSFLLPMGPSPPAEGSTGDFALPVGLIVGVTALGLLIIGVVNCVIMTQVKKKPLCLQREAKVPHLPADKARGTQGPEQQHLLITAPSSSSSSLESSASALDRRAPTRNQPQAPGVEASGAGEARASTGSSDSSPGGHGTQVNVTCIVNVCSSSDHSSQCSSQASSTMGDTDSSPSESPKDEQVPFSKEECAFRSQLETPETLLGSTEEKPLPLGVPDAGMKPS

[4] = molecular target: T3, His-tagged recombinant human TNFR2 (human, UniProt P20333 23-257); assay: Octet BLI
T3 chain: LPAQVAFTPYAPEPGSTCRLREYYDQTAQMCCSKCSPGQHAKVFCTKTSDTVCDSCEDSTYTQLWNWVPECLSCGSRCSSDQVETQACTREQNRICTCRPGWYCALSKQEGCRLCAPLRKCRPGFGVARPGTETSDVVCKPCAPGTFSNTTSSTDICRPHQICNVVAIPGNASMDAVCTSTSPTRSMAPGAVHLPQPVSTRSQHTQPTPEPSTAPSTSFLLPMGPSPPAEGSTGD

[5] = molecular target: T2, human TNFR2 expressed on cells …; assay: FACS cell binding
[6] = molecular target: T3, His-tagged recombinant human TNFR2; assay: ELISA
[7] = molecular target: T3, His-tagged recombinant human TNFR2; assay: BLI (AHC biosensor)
[8] = molecular target: T2, human TNFR2 expressed on cells …; assay: FACS cell binding
[9] = molecular target: T1, rhesus monkey TNFR2 expressed on CHO …; assay: FACS cell binding
[10] = molecular target: T2, human TNFR2 expressed on cells …; assay: FACS cell binding; IgG1AA format

Row | Binder | EC50 [1] | EC50 [2] | EC50 [3] | Kd [4] | EC50 [5] | EC50 [6] | Kd [7] | EC50 [8] | EC50 [9] | EC50 [10]
1 | B1 | 2.15 nM | 2.13 nM |  |  |  |  |  |  |  | 
2 | B2 | 0.7 nM |  | 2.9 nM | 2.8 nM | 1.77 nM |  |  |  |  | 
3 | B3 |  | 4.85 nM |  |  |  | 49.8 nM | 4.2 nM | 4.17 nM |  | 
4 | B4 |  | 0.6 nM |  | 6.3 nM |  | 0.06 nM | 1.4 nM | 0.48 nM | 5.37 nM | 0.905 nM
5 | B5 |  |  |  | 15.2 nM |  |  |  |  | 19.1 nM | 4.07 nM
